Three sequences from the supplement of paper PMC5998384 can be followed below.

The test system of data set [1] is HeLa Kyoto. Description: solubility in G1/S (NP-40 vs SDS abundance) (log2 ratio); higher = more soluble. As to conditions: cell cycle stage: G1/S.
The subject of data set [2] is HeLa Kyoto. Description: thermal stability score vs G1/S (z-score of summed log2 fold changes over temperatures); higher = more thermally stable than in G1/S.
Data set [3] deals with HeLa Kyoto. Description: melting temperature (median over replicates), in situ; higher = more thermally stable.
The test system of data set [4] is HeLa Kyoto. Description: solubility change mitosis vs G1/S (difference of NP-40 vs SDS log2 ratios) (log2 ratio difference); higher = more soluble in mitosis.
[5] abbreviates: cell cycle stage: early G1 (4.5 h after nocodazole release).
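For melting temperature (median over replicates), in situ in this document: HeLa Kyoto cells synchronized by double thymidine or nocodazole block, proteins quantified by TMT10plex mass spectrometry, three independent biological replicates.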
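For solubility change mitosis vs G1/S (difference of NP-40 vs SDS log2 ratios) in this document: synchronized HeLa Kyoto cells (double thymidine block for G1/S, nocodazole release for mitosis), protein amounts in NP-40 versus SDS lysates quantified by mass spectrometry, three biological replicates.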
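For solubility in G1/S (NP-40 vs SDS abundance) in this document: HeLa Kyoto cells arrested at G1/S by double thymidine block, proteins quantified by TMT10plex mass spectrometry in mild NP-40 versus SDS extracts, three biological replicates.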
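For thermal stability score vs G1/S (z-score of summed log2 fold changes over temperatures) in this document: synchronized HeLa Kyoto cells, proteins quantified by TMT10plex mass spectrometry, three biological replicates, mitosis taken 0.5 h after nocodazole release, G1/S directly after double thymidine block.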

As to “MEQLSDEEIDHGAEEDSDKEDQDLDKMFGAWLGELDKLTQSLDSDKPMEPVKRSPLRQETNMANFSYRFSIYNLNEALNQGETVDLDALMADLCSIEQELSSIGSGNSKRQITETKATQKLPVSRHTLKHGTLKGLSSSSNRIAKPSHASYSLDDVTAQLEQASLSMDEAAQQSVLEDTKPLVTNQHRRTASAGTVSDAEVHSISNSSHSSITSAASSMDSLDIDKVTRPQELDLTHQGQPITEEEQAAKLKAEKIRVALEKIKEAQVKKLVIRVHMSDDSSKTMMVDERQTVRQVLDNLMDKSHCGYSLDWSLVETVSELQMERIFEDHENLVENLLNWTRDSQNKLIFMERIEKYALFKNPQNYLLGKKETAEMADRNKEVLLEECFCGSSVTVPEIEGVLWLKDDGKKSWKKRYFLLRASGIYYVPKGKAKVSRDLVCFLQLDHVNVYYGQDYRNKYKAPTDYCLVLKHPQIQKKSQYIKYLCCDDVRTLHQWVNGIRIAKYGKQLYMNYQEALKRTESAYDWTSLSSSSIKSGSSSSSIPESQSNHSNQSDSGVSDTQPAGHVRSQSIVSSVFSEAWKRGTQLEESSKARMESMNRPYTSLVPPLSPQPKIVTPYTASQPSPPLPPPPPPPPPPPPPPPPPPPPLPSQSAPSAGSAAPMFVKYSTITRLQNASQHSGALFKPPTPPVMQSQSVKPQILVPPNGVVPPPPPPPPPPTPGSAMAQLKPAPCAPSLPQFSAPPPPLKIHQVQHITQVAPPTPPPPPPIPAPLPPQAPPKPLVTIPAPTSTKTVAPVVTQAAPPTPTPPVPPAKKQPAFPASYIPPSPPTPPVPVPPPTLPKQQSFCAKPPPSPLSPVPSVVKQIASQFPPPPTPPAMESQPLKPVPANVAPQSPPAVKAKPKWQPSSIPVPSPDFPPPPPESSLVFPPPPPSPVPAPPPPPPPTASPTPDKSGSPGKKTSKTSSPGGKKPPPTPQRNSSIKSSSGAEHPEPKRPSVDSLVSKFTPPAESGSPSKETLPPPAAPPKPGKLNLSGVNLPGVLQQGCVSAKAPVLSGRGKDSVVEFPSPPSDSDFPPPPPETELPLPPIEIPAVFSGNTSPKVAVVNPQPQQWSKMSVKKAPPPTRPKRNDSTRLTQAEISEQPTMATVVPQVPTSPKSSLSVQPGFLADLNRTLQRKSITRHGSLSSRMSRAEPTATMDDMALPPPPPELLSDQQKAGYGGSHISGYATLRRGPPPAPPKRDQNTKLSRDW [RAPH1]”, in the data set with HeLa Kyoto [1], the “solubility in G1/S (log2)” value was 0.0855. In addition, the values for the thermal stability score in the data set on HeLa Kyoto [2] (setting [5]) and in the data set with HeLa Kyoto [2] (cell cycle stage: mitosis) were -1.35 and -0.404, respectively. The melting temperature in the data set with HeLa Kyoto [3] (cell cycle stage: G1/S) turned out to be 52 °C; in the data set with HeLa Kyoto [3] (cell cycle stage: mitosis), 52.3 °C. Moreover, the “solubility change mitosis (log2)” value with HeLa Kyoto [4] was -0.187.

Turning to “MGQREMWRLMSRFNAFKRTNTILHHLRMSKHTDAAEEVLLEKKGCTGVITLNRPKFLNALTLNMIRQIYPQLKKWEQDPETFLIIIKGAGGKAFCAGGDIRVISEAEKAKQKIAPVFFREEYMLNNAVGSCQKPYVALIHGITMGGGVGLSVHGQFRVATEKCLFAMPETAIGLFPDVGGGYFLPRLQGKLGYFLALTGFRLKGRDVYRAGIATHFVDSEKLAMLEEDLLALKSPSKENIASVLENYHTESKIDRDKSFILEEHMDKINSCFSANTVEEIIENLQQDGSSFALEQLKVINKMSPTSLKITLRQLMEGSSKTLQEVLTMEYRLSQACMRGHDFHEGVRAVLIDKDQSPKWKPADLKEVTEEDLNNHFKSLGSSDLKF [HIBCH]”, the “solubility in G1/S (log2)” value with HeLa Kyoto [1] came out at 0.343. In addition, the thermal stability score with HeLa Kyoto [2] (setting [5]) came to 0.653; with HeLa Kyoto [2] (cell cycle stage: mitosis) it was 0.967. Besides, the figures for the melting temperature in the data set on HeLa Kyoto [3] (cell cycle stage: G1/S) and with HeLa Kyoto [3] (cell cycle stage: mitosis) were 49.7 °C and 50.2 °C, respectively. Besides, in the data set with HeLa Kyoto [4], the “solubility change mitosis (log2)” value was -0.019.

Turning to “MMFYRLLSIVGRQRASPGWQNWSSARNSTSAAEARSMALPTQAQVVICGGGITGTSVAYHLSKMGWKDIVLLEQGRLAAGSTRFCAGILSTARHLTIEQKMADYSNKLYYQLEQETGIQTGYTRTGSIFLAQTQDRLISLKRINAGLNVIGIPSEIISPKKVAELHHLLNVHDLVGAMHVPEDAVVSSADVALALASAASQNGVQIYDRTSVLHVMVKKGQVTGVETDKGQIECQYFVNCAGQWAYELGLSNEEPVSIPLHACEHFYLLTRPLETPLQSSTPTIVDADGRIYIRNWQGGILSGGFEKNPKPIFTEGKNQLEIQNLQEDWDHFEPLLSSLLRRMPELETLEIMKLVNCPETFTPDMRCIMGESPAVQGYFVLAGMNSAGLSFGGGAGKYLAEWMVHGYPSENVWELDLKRFGALQSSRTFLRHRVMEVMPLMYDLKVPRWDFQTGRQLRTSPLYDRLDAQGARWMEKHGFERPKYFVPPDKDLLALEQSKTFYKPDWFDIVESEVKCCKEAVCVIDMSSFTKFEITSTGDQALEVLQYLFSNDLDVPVGHIVHTGMLNEGGGYENDCSIARLNKRSFFMISPTDQQVHCWAWLKKHMPKDSNLLLEDVTWKYTALNLIGPRAVDVLSELSYAPMTPDHFPSLFCKEMSVGYANGIRVMSMTHTGEPGFMLYIPIEYALHVYNEVMSVGQKYGIRNAGYYALRSLRIEKFFAFWGQDINNLTTPLECGRESRVKLEKGMDFIGRDALLQQKQNGVYKRLTMFILDDHDSDLDLWPWWGEPIYRNGQYVGKTTSSAYSYSLERHVCLGFVHNFSEDTGEEQVVTADFINRGEYEIDIAGYRFQAKAKLYPVASLFTQKRRKDDMELSDLHGK [PDPR]”, the “solubility in G1/S (log2)” value in the data set with HeLa Kyoto [1] is -0.175. In addition, the thermal stability score with HeLa Kyoto [2] (setting [5]) is -1.29; with HeLa Kyoto [2] (cell cycle stage: mitosis), -1.55. Also, the melting temperature with HeLa Kyoto [3] (cell cycle stage: G1/S) was found to be 53.6 °C; in the data set on HeLa Kyoto [3] (cell cycle stage: mitosis), 53.7 °C. For the same sequence, the “solubility change mitosis (log2)” value in the data set with HeLa Kyoto [4] was -0.203.
